Experiment [1] deals with T1, glycoprotein B (gB) of HSV-1 (HSV-1, UniProt P06436 30-903).
T1 construct: also called protein of 110 kDa; PILR-recognizing ligand
The experiment in a line: immunoprecipitation from lysate of HSV-1-infected 293T cells, SDS-PAGE, silver stain.

The target in experiment [2] is T2, FLAG-tagged extracellular region of gB (29th to 720th amino acids) with transmembrane and intracellu (HSV-1; mouse, UniProt P06436 29-720).
T2 construct: also called cell expressing gB; cells to which gB had been transfected
The experiment in a line: flow cytometry on transfected 293T cells. On the technique in general: A flow cytometer gives signals particle by particle.

B1: human CD200-Ig fusion protein (Fc fusion)
chain: QVQVVTQDEREQLYTPASLKCSLQNAQEALIVTWQKKKAVSPENMVTFSENHGVVIQPAYKDKINITQLGLQNSTITFWNITLEDEGCYMCLFNTFGFGKISGTACLTVYVQPIVSLHYKFSEDHLNITCSATARPAPMVFWKVPRSGIENSTVTLSHPNGTTSVTSILHIKDPKNQVGKEVICQVLHLGTVTDFKQTVNKG
notes: Control for PILR-Ig; also called control Ig; not shown: Ig part not described
As for B1, the binding result in experiment [1] was “no binding”.

B2: HVEM-Ig (Fc fusion)
chain: LPSCKEDEYPVGSECCPKCSPGYRVKEACGELTGTVCEPCPPGTYIAHLNGLSKCLQCQMCDPAMGLRASRNCSRTENAVCGCSPGHFCIVQDGDHCAACRAYATSSPGQRVQKGGTESQDTLCQNCPPGTFSPNGTLEECQHQTKCSWLVTKAGAGTSSSHWV
notes: not shown: Ig part not described
Turning to B2, the binding result in experiment [2] is on record as “no binding”.

Source of the values: patent US20100129347A1 (OSAKA UNIVERSITY, published 2010).
